Data taken from patent publication US20250388623A1, “PEPTIDE INHIBITOR AND USE THEREOF” (CHENGDU BRILLIANT INSPIRATION BIOTHERAPEUTICS CO., LTD, priority 2022, published 2025).

How the values were obtained:
[1] = target: TSP-1 protein expressed by PMA-differentiated THP-1 macrophage-like cells, P07996; test: cell-based or functional assay
[2] = target: TSP-1 protein (novoprotein, Catalog No. CU45), P07996; test: competition ELISA, TSP-1 coated, CD36-Fc as competitor, peptide 0-100 µM
[3] = target: TSP-1 protein (novoprotein, Catalog No. CU45), P07996; test: competition ELISA, TSP-1 coated, CD36-Fc 0.25 µg/mL as competitor, peptide 100 µM

Chain of TSP-1 protein (novoprotein, Catalog No. CU45), P07996 (P07996 19-1170 limits assumed): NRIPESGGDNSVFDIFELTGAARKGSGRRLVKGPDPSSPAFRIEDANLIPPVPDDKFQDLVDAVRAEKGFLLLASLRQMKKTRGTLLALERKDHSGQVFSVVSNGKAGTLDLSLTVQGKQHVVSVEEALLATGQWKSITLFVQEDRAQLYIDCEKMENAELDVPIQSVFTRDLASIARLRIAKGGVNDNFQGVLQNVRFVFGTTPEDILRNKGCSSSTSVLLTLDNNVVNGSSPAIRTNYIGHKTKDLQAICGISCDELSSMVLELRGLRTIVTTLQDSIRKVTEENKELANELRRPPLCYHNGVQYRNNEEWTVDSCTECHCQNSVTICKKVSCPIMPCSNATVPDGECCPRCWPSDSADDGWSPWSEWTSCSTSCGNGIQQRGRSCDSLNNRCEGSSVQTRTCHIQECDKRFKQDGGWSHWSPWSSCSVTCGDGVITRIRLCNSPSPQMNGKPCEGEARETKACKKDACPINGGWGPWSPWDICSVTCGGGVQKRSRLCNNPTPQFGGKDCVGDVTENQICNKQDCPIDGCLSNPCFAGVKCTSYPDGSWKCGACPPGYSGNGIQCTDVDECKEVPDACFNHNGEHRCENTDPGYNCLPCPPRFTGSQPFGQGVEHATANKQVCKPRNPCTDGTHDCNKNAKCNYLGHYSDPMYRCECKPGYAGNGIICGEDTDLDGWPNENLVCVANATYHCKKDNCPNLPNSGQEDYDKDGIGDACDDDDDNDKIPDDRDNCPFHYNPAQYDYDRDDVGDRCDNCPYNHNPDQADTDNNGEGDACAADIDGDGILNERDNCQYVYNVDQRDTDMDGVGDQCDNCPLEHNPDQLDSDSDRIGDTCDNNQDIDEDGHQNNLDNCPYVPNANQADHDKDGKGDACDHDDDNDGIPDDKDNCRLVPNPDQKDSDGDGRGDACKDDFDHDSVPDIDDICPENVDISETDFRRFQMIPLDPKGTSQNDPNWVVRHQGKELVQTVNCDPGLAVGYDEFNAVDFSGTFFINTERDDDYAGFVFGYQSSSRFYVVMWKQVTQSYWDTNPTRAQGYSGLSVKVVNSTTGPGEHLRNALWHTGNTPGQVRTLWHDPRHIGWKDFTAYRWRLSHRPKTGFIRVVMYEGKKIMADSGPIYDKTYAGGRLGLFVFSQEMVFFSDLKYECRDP
Chain of TSP-1 protein expressed by PMA-differentiated THP-1 macrophage-like cells, P07996 (P07996 19-1170 limits assumed): as above

TCDAEDNC (modifications not checked) [SEQ ID NO: 43] showed a Mean (relative fluorescence intensity), 293-TGFβ Res reporter cells (ratio to negative control) [1] of 0.65, an IC50 [2] of 3.62 µM and a Blocking rate (Mean, %) [3] of 52%.

With TCDAEDNC (modifications not checked) [SEQ ID NO: 44] the Mean (relative fluorescence intensity), 293-TGFβ Res reporter cells (ratio to negative control) [1] was 0.43, the IC50 [2] was 6.71 µM and the Blocking rate (Mean, %) [3] was 52.9%.
